Data as given in US7176184B2, “Treatment for inflammatory bowel disease with a fibronectin polypeptide” (Biogen Idec MA Inc., priority 1992, dated 2007).
Several values for one entry are separate records, joined by “and”; a condition that tells them apart may be missing. Equal values may be shown once. Entries after “also recorded” stand apart in the source; their conditions may differ.

Assays:
[1] = test system: NOD mice receiving spleen cells from diabetic donors; assay: Adoptive transfer of diabetes in NOD mice; assay type: in vivo
From the text: For the adoptive transfer of diabetes experiments, NOD mice were obtained from Taconic Farms (Germantown, N.Y.) or from the Joslin Diabetes Center (Boston, Mass.). Spontaneously diabetic (D) females of recent onset (13–20 weeks of age) were used as spleen cell donors and 8 week old nondiabetic (Y) females served as recipients. Spleen cells from 4 week old nondiabetic (Y) female donors which fail to transfer disease were used as a negative control.
Recipient mice were placed on acidified water (1:8400 dilution of concentrated HCl in water) one week prior to sublethal irradiation (775 rad) performed in split doses (300 rad, 300 rad, and 175 rad) on each of three days (day −2, −1, and the day of transfer), in order to minimize any incidence of intestinal infection subsequent to high dose irradiation (Gamma Cell 1000 Cesium ^137 source, Nordion International, Inc., Ontario, Canada). Spleens were harvested from diabetic donors or from nondiabetic controls, cell suspensions made and red cells lysed with Hemolytic Geys solution. […] Another group received PBS alone without cells transferred. The fusion protein LFA-3Ig (LFA-3TIP) was isolated and purified as described in PCT US92/02050 and Miller et al., 1993 [36]. […] Diabetes onset was monitored as described above.

[2] = test system: dual responder allergic sheep; assay: Sheep model of airways hyper-responsiveness (Ascaris suum antigen challenge); assay type: in vivo
Description: Experiments were performed essentially as described by Abraham et al.. […] To measure breathing mechanics and physical changes in the airways, the sheep were restrained in a prone position with heads immobilized. A balloon catheter was advanced through one nostril under topical anesthesia with 2% lidocaine solution to the lower esophagus, and a cuffed endotracheal tube was advanced through the other nostril (using a flexible fiberoptic bronchoscope as a guide) for the measurement of airway mechanics and during aerosol challenges. Pleural pressure was estimated with the esophageal balloon catheter (filled with 1 ml of air) positioned 5–10 cm from the gastroesophageal junction. In this position, end expiratory pleural pressure ranged between −2 and −5 cm H2O. Once the balloon was placed, it was secured so that it remained in position for the duration of the experiment. Lateral pressure in the trachea was measured with a sidehole catheter, (inner diam. 2.5 mm) advanced through and positioned distal to the tip of the endotracheal tube. Transpulmonary pressure (the difference between tracheal and pleural pressure) was measured with a differential pressure transducer catheter system (MP45, Validyne, Northridge, Calif.). […] Pulmonary resistance (RL) was measured by connecting the proximal end of the endotracheal tube to a Fleich pneumotachograph (Dyna Sciences, Blue Bell Pa.). Signals indicating flow and transpulmonary pressure were recorded on an oscilloscope recorder (Model DR-12; Electronics for Medicine, White Plains, N.Y.) linked to a computer for automatic calculation of pulmonary resistance (RL) from transpulmonary pressure, respiratory volume (obtained by digital integration) and flow by the mid-volume technique, analyzed from 5–10 breaths. Thoracic gas volume (Vtg) was measured immediately after determination of RL in a constant volume body plethysmograph. Specific lung resistance (SRL) was calculated from these values (SRL=Vtg×RL).
Airway responsiveness was determined by performing dose response curves to inhaled carbachol. The dose response curves were plotted using measurements of SRL taken immediately after inhalation of buffer (PBS) alone and after each consecutive administration of 10 breaths of increasing concentrations of carbachol in PBS. The concentrations of carbachol were 0.25%, 0.5%, 1.0%, 2.0% and 4.0% wt/vol in PBS. The provocation test was discontinued when SRL increased over 400% from the post-PBS value or after the highest carbachol concentration had been administered. Airway responsiveness was determined by calculating from the dose response curves the cumulative carbachol dose in breath units (BU) that increased specific lung resistance 400% over the post buffer value (PD400%). One breath unit was defined as one breath of a 1% wt/vol carbachol solution.
Each sheep was subjected to a trial as a control in which a placebo (PBS without additive) was used as a pretreatment 30 minutes before allergen challenge with Ascaris suum antigen (Greer Diagnostics, Lenoir, N.C.). The antigen solution was delivered as an aerosol using a disposable medical nebulizer (RAINDROP®, Puritan Bennett, Lenexa, Kans.) that provided an aerosol with a mass median aerodynamic diameter of 3.2 μM (geometric SD 1.9) as determined by an Andersen cascade impactor. The Ascaris suum extract was diluted in PBS to a concentration of 82,000 Protein Nitrogen Units(PNU)/ml. The output of the nebulizer was directed into a plastic T-tube, one end of which was connected to the inspiratory port of a Harvard respirator. A dosimeter connected to the nebulizer consisting of a solenoid valve and a 20 psi compressed air source and the solenoid valve was activated at the beginning of the inspiratory cycle of the Harvard respirator for one second. The aerosol delivered at a tidal volume of 500 ml and a rate of 20 breaths per min. for 20 min. Each sheep was challenged with an equivalent dose of antigen (400 breaths) in the control and VCAM1-IgG1 trials. […]

CTT VLA4 on CTT PBLs = assay: FACS analysis of binding of anti-VLA-4 monoclonal antibodies to CTT peripheral blood mononuclear leukocytes; parameters: species or system cotton top tamarin
Description: Blood samples (3 ml) from CTTs were heparinized and the CTT peripheral blood mononuclear leukocytes (PBLs) were isolated using a Ficoll-Hypaque gradient (Pharmacia) according to the manufacturer's instructions for isolation of human PBLs. CTT PBLs were examined for their ability to bind to the murine anti-human VLA-4 monoclonal antibodies HP1/2 and HP2/1 by FACS analysis using a Becton Dickenson FACStar and standard techniques (see, e.g., Lobb et al., 1991a).

[3] = test system: cotton top tamarins (CTTs) exhibiting symptoms of spontaneous colitis; assay: Cotton top tamarin trials: acute inflammation index from colon biopsies; assay type: in vivo; parameters: Day 0 AII (acute inflammation index) / Day 10 AII (acute inflammation index): scale not given here; details: for Day 0 AII (acute inflammation index) / Day 10 AII (acute inflammation index): individual treated CTTs
Description: Five CTTs received HP1/2 and five received placebo, by intravenous injection. The CTTs receiving HP1/2 were injected with 1 mg HP1/2 per day (i.e., about 2 mg/kg/day, based on approximate half-kilogram weight of a CTT) for eight days (on Days 0, 1, 2, 3, 4, 5, 6, and 7 of the trial). Colon tissue samples obtained from the animals were biopsied every other day (on Days 0, 2, 4, 6, 8, and 10 of the trial). Data from the biopsies were used to determine an acute inflammation index for each animal, giving a semi-quantitative analysis of the course of the colitis. (See, Madara et al..) The inflammation indices before the trial began (Day 0) and at the end of the trial at Day 10 are set forth in Table II, below: (“Treated CTTs” received antibody-HP1/2; “Control CTTs” received placebo) The trial described in Example III was repeated using 14 CTTs, 7 receiving HP1/2 and 7 receiving placebo.

VCAM-1-expressing cells = assay: Leukocyte adhesion to VCAM-1-expressing cells; assay type: cell-based
VLA-4 = VLA-4 (Homo sapiens, UniProt P13612); assay: VLA-4-mediated T cell activation; assay type: cell-based
Sequence of VLA-4 (P13612 34-1032): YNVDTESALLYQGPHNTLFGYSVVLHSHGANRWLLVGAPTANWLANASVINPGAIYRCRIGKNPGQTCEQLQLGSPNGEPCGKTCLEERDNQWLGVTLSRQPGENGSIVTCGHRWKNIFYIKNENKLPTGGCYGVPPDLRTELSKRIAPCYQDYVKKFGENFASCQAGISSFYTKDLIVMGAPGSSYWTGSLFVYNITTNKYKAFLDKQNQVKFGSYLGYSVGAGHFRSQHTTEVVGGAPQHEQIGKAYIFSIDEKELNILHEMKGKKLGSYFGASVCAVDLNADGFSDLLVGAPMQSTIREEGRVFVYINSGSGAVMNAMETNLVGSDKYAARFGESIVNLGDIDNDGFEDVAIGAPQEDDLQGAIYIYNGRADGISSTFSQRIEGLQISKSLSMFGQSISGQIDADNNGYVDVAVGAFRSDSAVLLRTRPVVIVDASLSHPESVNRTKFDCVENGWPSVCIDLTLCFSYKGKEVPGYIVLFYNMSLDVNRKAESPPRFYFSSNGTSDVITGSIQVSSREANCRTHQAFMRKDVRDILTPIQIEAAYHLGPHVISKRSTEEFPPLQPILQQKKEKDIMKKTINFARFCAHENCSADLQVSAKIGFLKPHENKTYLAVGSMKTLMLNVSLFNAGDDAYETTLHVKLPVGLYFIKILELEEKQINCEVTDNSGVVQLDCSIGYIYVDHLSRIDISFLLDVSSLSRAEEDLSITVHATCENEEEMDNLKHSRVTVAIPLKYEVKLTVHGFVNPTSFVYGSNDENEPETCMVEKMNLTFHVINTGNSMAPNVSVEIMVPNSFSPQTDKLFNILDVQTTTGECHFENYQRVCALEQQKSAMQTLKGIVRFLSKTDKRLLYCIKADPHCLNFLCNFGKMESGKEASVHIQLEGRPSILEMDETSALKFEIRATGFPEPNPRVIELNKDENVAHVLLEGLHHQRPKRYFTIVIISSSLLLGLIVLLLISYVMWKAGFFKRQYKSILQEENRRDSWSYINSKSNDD
Sequence of VLA-4 (P05556 21-798 partner): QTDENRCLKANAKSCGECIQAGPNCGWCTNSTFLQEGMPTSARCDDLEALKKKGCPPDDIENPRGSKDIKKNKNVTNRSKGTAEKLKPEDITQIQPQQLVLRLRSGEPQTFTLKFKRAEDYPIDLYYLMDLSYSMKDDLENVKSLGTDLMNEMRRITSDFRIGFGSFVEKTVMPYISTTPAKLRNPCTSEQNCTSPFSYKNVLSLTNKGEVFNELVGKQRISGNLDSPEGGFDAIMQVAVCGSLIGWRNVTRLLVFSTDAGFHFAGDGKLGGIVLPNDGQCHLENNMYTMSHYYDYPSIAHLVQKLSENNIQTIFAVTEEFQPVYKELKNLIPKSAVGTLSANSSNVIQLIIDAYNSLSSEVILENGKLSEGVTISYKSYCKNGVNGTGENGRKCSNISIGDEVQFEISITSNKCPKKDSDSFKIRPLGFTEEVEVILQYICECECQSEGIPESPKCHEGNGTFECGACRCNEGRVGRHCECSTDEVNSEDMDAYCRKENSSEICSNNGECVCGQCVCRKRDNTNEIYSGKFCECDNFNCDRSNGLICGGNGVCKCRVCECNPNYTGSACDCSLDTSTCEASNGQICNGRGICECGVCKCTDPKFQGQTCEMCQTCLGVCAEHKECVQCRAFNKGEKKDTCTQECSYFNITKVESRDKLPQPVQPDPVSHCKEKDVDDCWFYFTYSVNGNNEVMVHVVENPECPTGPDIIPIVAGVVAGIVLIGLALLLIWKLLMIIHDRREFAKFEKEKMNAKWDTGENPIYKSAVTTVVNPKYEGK

[4] = 15 mg aerosol 2, 8 and 24 h after antigen challenge, listed as VCAM-Ig
[5] = 30 mg aerosol 2 and 24 h after antigen challenge (optimal dose), listed as VCAM-Ig
[6] = 30 mg aerosol 30 min before and 8 h after antigen challenge, listed as VCAM-Ig
[7] = 30 mg aerosol 30 min before antigen challenge
[8] = 60 mg aerosol 30 min before antigen challenge, listed as VCAM-Ig

VCAM 2D-IgG: soluble form of VCAM1: two N-terminal domains of VCAM1 fused to human IgG1 heavy chain constant region (hinge, CH2, CH3); SEQ ID NO: 5/12
onset of diabetes in recipients of cells from diabetic donor mice ([1]; 100 μg i.p. through day 17): significantly inhibits the onset of diabetes | serum level of fusion protein (ELISA) ([1]; 100 μg/0.2 ml i.p. twice weekly through day 17): sufficient to saturate VLA4-positive cells | incidence of diabetes ([1]; by day 30 post-transfer, recipients of cells from diabetic donors, 100 μg i.p. through day 17, n=5): 60% | airways hyper-responsiveness (AHR) [2, 4]: blockage of the AHR; also recorded: inhibition of AHR | late phase response (LPR) [2, 4]: partial blockage; also recorded: significant but partial inhibition | airways hyper-responsiveness (AHR) [2, 5]: complete blockage; also recorded: complete inhibition | late phase response (LPR) [2, 5]: complete blockage; also recorded: complete inhibition | airways hyper-responsiveness (AHR) [2, 6]: no blockage; also recorded: no inhibition | late phase response (LPR) [2, 6]: blocked completely; also recorded: complete inhibition | airways hyper-responsiveness (AHR) [2, 7]: no effect | late phase response (LPR) [2, 7]: significant but partial inhibition | airways hyper-responsiveness (AHR) [2, 8]: blocked; also recorded: inhibition of AHR | late phase response (LPR) [2, 8]: partial blockage; also recorded: significant but partial inhibition | late phase response (LPR) versus placebo control ([2]; all dosing regimens, ten animals): partial or complete inhibition

B1: HP1/2: murine anti-human VLA-4 monoclonal antibody (IgG1) obtained from Biogen, Inc.; VH/VK in SEQ ID NO: 1-4 (antibody, listed as Mus musculus, V domains shown)
VH: EVKLQQSGAELVKPGASVKLSCTASGFNIKDTYMHWVKQRPEQGLEWIGRIDPASGDTKYDPKFQVKATITADTSSNTAWLQLSSLTSEDTAVYYCADGMWVSTGYALDFWGQGTTVTVSS
VL: SIVMTQTPKFLLVSAGDRVTITCKASQSVTNDVAWYQQKPGQSPKLLIYYASNRYTGVPDRFTGSGYGTDFTFTISTVQAEDLAVYFCQQDYSSPYTFGGGTKLEI
binding to CTT PBLs (CTT VLA4 on CTT PBLs): bound | change in acute inflammation index ([3]; Example III, Day 0 to Day 10): significant (p<0.01) decrease | Day 0 AII (acute inflammation index) ([3]; Example III, before the trial began, 1 mg HP1/2 per day i.v. Days 0-7): 2 (3×) and 1 (2×) | Day 10 AII (acute inflammation index) ([3]; Example III, end of trial, 1 mg HP1/2 per day i.v. Days 0-7): 1 and 0 (4×) | Day 0 AII, MEAN ([3]; Example III, mean of 5 treated CTTs, before the trial began): 1.6 | Day 10 AII, MEAN ([3]; Example III, mean of 5 treated CTTs, end of trial): 0.2 | Day 0 AII (acute inflammation index) ([3]; Example IV (repeat trial), Day 0): 2 | Day 10 AII (acute inflammation index) ([3]; Example IV (repeat trial), Day 10): 0 (5×) and 1 and 2 | change in acute inflammation ([3]; Example IV, Day 0 to Day 10): significant decrease | Day 0 AII, MEAN ([3]; Example IV, mean of 7 treated CTTs, Day 0): 2.0 | Day 10 AII, MEAN ([3]; Example IV, mean of 7 treated CTTs, Day 10): 0.43 | inflammation of biopsied intestinal tissue ([3]; summary statement): significant reduction in inflammation | leukocyte adhesion to VCAM-1-expressing cells (VCAM-1-expressing cells): block | VLA-4-mediated T cell activation (VLA-4): not to promote
